Test results published in patent US20200102387A1.
Read-outs that look alike come from different tables or passages of the source. One block for each substance: values may come before it.

Experiments:
FcγR1 (CD64) (human) = FcγR1 (CD64) (human) (UniProt P12314); assay: cell binding, FcγR-engineered HEK293 cells
[1] = target: FcγR2A (CD32aH131) (human) (UniProt P12318); assay: cell binding, FcγR-engineered HEK293 cells
[2] = target: FcγR2A (CD32aR131) (human) (UniProt P12318); assay: cell binding, FcγR-engineered HEK293 cells
FcγR2B (human) [3] = target: FcγR2B (human) (UniProt P31994); assay: cell binding, FcγR-engineered HEK293 cells
[4] = target: FcγR3A (CD16aF158) (human) (UniProt P08637); assay: cell binding, FcγR-engineered HEK293 cells
[5] = target: FcγR3A (CD16aV158) (human) (UniProt P08637); assay: cell binding, FcγR-engineered HEK293 cells
FcγR2B (human) [6] = target: FcγR2B (human) (UniProt P31994); assay: cell binding, FcγR-engineered HEK293 cells; remark: listed apart in the source
[7] = target: FcγR3A (CD16aV158) (human) (UniProt P08637); assay: cell binding, FcγR-engineered HEK293 cells; remark: listed apart in the source
[8] = target: rat SIRPα on CHO-K1 cells (rat) (UniProt P97710); assay: flow cytometry on Rat SIRPα-CHO-K1 cells
[9] = target: mouse SIRPα on cells (mouse) (UniProt P97797); assay: flow cytometry on Mouse SIRPα-CHO-K1 cells
Chain of mouse SIRPα on cells (mouse) (P97797 32-513): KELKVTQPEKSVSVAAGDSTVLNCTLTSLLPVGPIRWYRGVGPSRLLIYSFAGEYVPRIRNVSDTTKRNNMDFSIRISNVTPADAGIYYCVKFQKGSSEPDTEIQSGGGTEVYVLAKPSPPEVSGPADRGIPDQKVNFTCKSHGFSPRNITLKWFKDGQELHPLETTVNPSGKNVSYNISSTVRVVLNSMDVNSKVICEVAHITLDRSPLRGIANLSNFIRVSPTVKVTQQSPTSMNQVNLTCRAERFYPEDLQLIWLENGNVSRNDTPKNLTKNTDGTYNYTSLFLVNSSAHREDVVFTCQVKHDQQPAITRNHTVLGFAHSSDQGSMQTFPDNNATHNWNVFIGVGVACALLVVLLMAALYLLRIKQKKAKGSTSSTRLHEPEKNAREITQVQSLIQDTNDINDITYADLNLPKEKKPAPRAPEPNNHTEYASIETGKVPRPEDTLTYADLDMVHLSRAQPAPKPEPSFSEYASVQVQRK

Chain of FcγR2A (CD32aR131) (human) (P12318 34-317 H167R): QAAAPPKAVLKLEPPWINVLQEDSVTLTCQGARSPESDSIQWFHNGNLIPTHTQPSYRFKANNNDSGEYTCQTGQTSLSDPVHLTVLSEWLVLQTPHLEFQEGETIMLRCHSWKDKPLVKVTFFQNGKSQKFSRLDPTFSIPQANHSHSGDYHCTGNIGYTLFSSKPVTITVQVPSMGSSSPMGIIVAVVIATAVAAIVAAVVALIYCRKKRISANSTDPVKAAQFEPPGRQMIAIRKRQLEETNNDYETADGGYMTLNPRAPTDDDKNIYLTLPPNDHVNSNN
Chain of FcγR2B (human) (P31994 43-310): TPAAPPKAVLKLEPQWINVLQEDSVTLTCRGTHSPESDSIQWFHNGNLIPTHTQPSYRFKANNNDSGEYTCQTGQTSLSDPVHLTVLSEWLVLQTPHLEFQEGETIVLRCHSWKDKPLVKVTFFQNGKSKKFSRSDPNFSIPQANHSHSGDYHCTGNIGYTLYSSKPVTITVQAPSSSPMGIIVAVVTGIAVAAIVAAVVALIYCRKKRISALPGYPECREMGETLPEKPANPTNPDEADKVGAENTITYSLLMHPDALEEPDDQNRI
Chain of FcγR3A (CD16aV158) (human) (P08637 17-254 F176V): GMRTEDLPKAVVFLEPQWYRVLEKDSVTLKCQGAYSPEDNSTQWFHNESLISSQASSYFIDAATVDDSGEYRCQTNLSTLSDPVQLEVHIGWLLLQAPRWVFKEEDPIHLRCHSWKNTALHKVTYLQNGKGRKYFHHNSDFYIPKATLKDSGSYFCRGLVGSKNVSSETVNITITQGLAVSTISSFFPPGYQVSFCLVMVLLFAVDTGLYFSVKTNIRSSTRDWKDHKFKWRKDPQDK
Chain of FcγR2A (CD32aH131) (human) (P12318 34-317): as the sequence (P12318 34-317 H167R) above, with R134H counted along it
Chain of FcγR1 (CD64) (human) (P12314 16-374): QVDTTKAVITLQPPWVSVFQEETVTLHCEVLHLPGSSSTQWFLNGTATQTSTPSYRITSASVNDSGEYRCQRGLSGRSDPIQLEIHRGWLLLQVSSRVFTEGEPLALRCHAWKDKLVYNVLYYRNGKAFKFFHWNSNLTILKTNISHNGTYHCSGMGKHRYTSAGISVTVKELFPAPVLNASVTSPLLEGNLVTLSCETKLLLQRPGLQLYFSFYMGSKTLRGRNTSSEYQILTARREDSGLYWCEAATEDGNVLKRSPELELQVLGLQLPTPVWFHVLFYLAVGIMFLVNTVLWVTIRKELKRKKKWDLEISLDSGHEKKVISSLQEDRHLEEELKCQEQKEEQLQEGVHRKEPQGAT
Chain of rat SIRPα on CHO-K1 cells (rat) (P97710 32-509): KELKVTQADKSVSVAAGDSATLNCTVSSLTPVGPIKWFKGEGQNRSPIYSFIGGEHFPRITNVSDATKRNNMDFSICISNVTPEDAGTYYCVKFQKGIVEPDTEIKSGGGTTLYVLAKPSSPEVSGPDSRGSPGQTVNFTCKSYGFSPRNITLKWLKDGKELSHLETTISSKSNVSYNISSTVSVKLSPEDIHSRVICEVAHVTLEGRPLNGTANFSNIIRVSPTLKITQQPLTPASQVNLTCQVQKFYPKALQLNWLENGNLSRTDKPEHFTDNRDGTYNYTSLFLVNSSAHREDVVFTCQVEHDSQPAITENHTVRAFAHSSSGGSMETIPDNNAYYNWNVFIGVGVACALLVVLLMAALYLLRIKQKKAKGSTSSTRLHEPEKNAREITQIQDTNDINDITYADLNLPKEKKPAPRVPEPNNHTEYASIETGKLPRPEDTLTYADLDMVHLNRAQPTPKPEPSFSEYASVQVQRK
Chain of FcγR3A (CD16aF158) (human) (P08637 17-254): as the sequence (P08637 17-254 F176V) above, with V160F counted along it

EC50 (FcγR1 (CD64) (human)): 1.18 nM | EC50 [1]: 137 nM | EC50 [2]: 90.2 nM | EC50 (FcγR2B (human) [3]): 1200 nM | EC50 [4]: 311 nM | EC50 [5]: 449 nM | EC50 (FcγR2B (human) [6]): 2240 nM | EC50 [7]: 127 nM
Substance: Isotype Control-IgG1 (antibody)

EC50 (FcγR1 (CD64) (human)): 0.83 nM | EC50 [1]: 361 nM | EC50 [2]: 188 nM
Substance: Commercially Available IgG1 (antibody)

EC50 (read off the curve) [8]: 2 nM
Substance: anti-rat-SIRPα antibody OX-41

EC50 (read off the curve) [9]: 2 nM
Substance: anti-mouse-SIRPα antibody P84
